Publication PMC7334207, “Select amino acids in DGCR8 are essential for the UGU-pri-miRNA interaction and processing” (Communications Biology, 2020)

T1: G478del-mut1 (Homo sapiens, UniProt Q8WYQ5 285-478, W461A;A462G;E463Q;del370-429)
T1 sequence: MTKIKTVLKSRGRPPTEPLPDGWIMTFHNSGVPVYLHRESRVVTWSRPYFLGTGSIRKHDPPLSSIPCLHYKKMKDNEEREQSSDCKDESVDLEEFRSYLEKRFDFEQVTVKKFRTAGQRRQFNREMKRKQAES

T2: G478del WT (Homo sapiens, UniProt Q8WYQ5 285-478, del370-429)
T2 sequence: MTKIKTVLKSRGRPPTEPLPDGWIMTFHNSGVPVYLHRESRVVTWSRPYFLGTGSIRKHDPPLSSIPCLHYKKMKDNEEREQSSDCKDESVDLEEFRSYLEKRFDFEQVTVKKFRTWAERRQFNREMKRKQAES

T3: G478del WT-mut1 hybrid dimer (Homo sapiens, UniProt Q8WYQ5;Q8WYQ5 285-369+430-478;285-369+430-478, internal_change;W461A;A462G;E463Q;internal_change)
T3 sequence 1: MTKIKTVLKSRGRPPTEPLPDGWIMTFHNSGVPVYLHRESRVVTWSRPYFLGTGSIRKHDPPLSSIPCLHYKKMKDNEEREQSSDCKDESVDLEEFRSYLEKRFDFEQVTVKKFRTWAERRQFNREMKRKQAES
T3 sequence 2: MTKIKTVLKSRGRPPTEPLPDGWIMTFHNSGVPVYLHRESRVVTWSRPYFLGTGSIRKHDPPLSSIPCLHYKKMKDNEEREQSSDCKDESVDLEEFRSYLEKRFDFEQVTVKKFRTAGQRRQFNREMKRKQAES

T4: G478 (Rhed) (Homo sapiens, UniProt Q8WYQ5 285-478)
T4 sequence: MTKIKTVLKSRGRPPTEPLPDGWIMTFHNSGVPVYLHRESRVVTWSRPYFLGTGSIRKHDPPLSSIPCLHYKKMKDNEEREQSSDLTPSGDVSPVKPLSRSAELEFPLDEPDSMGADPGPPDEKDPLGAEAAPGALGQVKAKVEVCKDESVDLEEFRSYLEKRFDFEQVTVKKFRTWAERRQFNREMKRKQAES


How the values were obtained:
[1] = target: the molecule itself; assay: SEC-MALS; molecular mass of the purified protein estimated with a Multi-Angle Light Scattering detector (miniDAWN TREOS, Wyatt Technology Corporation); compared with the theoretical mass of a dimer
G478del-mut1 = target: T1, G478del-mut1; assay: EMSA; 50 mM Tris-HCl pH 7.5, 250 mM NaCl, 10% glycerol, 0.2 mg/ml BSA, 1 mM DTT, 2 mM EDTA; 1 uM RNA in 10 uL; on ice 60 min; 4% native PAGE at 4 C, ethidium bromide; conditions: protein: recombinant; tags: 10xHis; chain copies: 2; hairpin
G478del WT = target: T2, G478del WT; assay: as above; conditions: protein: recombinant; chain copies: 2; hairpin
[2] = target: T3, G478del WT-mut1 hybrid dimer; assay: as above; conditions: protein: recombinant; tags: 10xHis on mut1 subunit; protein G on WT subunit removed by HRV 3C; copies: 1;1; hairpin
G478 (Rhed) = target: T4, G478 (Rhed); assay: as above; conditions: protein: recombinant; (purified as for G4; theoretical dimer 44 kDa implies no GFP); chain copies: 2; hairpin

| Binder | stoichiometry N [1] | Kd (G478del-mut1) [µM] | Kd (G478del WT) [µM] | Kd [2] [µM] | Kd (G478 (Rhed)) [µM] |
| --- | --- | --- | --- | --- | --- |
| G460del, G478del with the 461–478 region deleted (domain or fragment, human, UniProt Q8WYQ5 285-460, looked up, Lost its hemin-associating ability; source: E. coli, purified (as G478 and its variants)) MTKIKTVLKSRGRPPTEPLPDGWIMTFHNSGVPVYLHRESRVVTWSRPYFLGTGSIRKHDPPLSSIPCLHYKKMKDNEEREQSSDCKDESVDLEEFRSYLEKRFDFEQVTVKKFRT | 2 | – | – | – | – |
| G478del, G478 (DGCR8 amino acids 285–478) with the 370–429 region deleted (domain or fragment, human, UniProt Q8WYQ5 285-478, looked up, Associated with hemin; Theoretical dimer mass ~30 kDa as printed; also called G478del–WT; source: E. coli, purified (as described for G478)) MTKIKTVLKSRGRPPTEPLPDGWIMTFHNSGVPVYLHRESRVVTWSRPYFLGTGSIRKHDPPLSSIPCLHYKKMKDNEEREQSSDCKDESVDLEEFRSYLEKRFDFEQVTVKKFRTWAERRQFNREMKRKQAES | 2 | – | – | – | – |
| G478del-mut1, G478del with AGQ in the 461–463 region instead of WAE (domain or fragment, human, UniProt Q8WYQ5 285-478, looked up, Associated with hemin; source: E. coli, purified (as described for G478del)) MTKIKTVLKSRGRPPTEPLPDGWIMTFHNSGVPVYLHRESRVVTWSRPYFLGTGSIRKHDPPLSSIPCLHYKKMKDNEEREQSSDCKDESVDLEEFRSYLEKRFDFEQVTVKKFRTAGQRRQFNREMKRKQAES | 2 | – | – | – | – |
| G478, Rhed (RNA-binding heme domain) of DGCR8, amino acids 285–478 (domain or fragment, human, UniProt Q8WYQ5 285-478, looked up, Associated with hemin; also called Rhed dimer; G478 dimer; source: E. coli, purified (as described for the G4 fragments: Ni2+-agarose, SP-sepharose; then Superdex 200)) MTKIKTVLKSRGRPPTEPLPDGWIMTFHNSGVPVYLHRESRVVTWSRPYFLGTGSIRKHDPPLSSIPCLHYKKMKDNEEREQSSDLTPSGDVSPVKPLSRSAELEFPLDEPDSMGADPGPPDEKDPLGAEAAPGALGQVKAKVEVCKDESVDLEEFRSYLEKRFDFEQVTVKKFRTWAERRQFNREMKRKQAES | 2 | – | – | – | – |
| ACUGGAAGCCAAGAAAGAUGGGCUUUCAGU (structured_RNA) [10L10_noUGU] | – | 13.8 ± 0.39 | 16.8 ± 1.48 | 11.5 ± 0.77 | 8.57 ± 0.96 |
| ACUGGAAGCUGUGAAAGAUGGGCUUUCAGU (structured_RNA) [10L10_UGU] | – | 9.03 ± 0.61 | 5.73 ± 0.39 | 5.43 ± 0.46 | 3.43 ± 0.29 |
